Target: GST-V-1 (human) (UniProt P58546)
Test: SPR; GST-fusion protein (GST-V-1, GST-CA or GST-CD) immobilised on a CM5 chip via anti-GST antibodies (up to 200 RU), CP perfused at 20 µl/min; 20°C; 50 mM KCl, 1 mM MgCl2, 0.005% Tween-20, 10 mM imidazole pH 7.0; 1:1 fit, KD from the kinetic rate constants (steady state for several fast-dissociating mutants)

GST-V-1 (human), sequence (P58546 whole entry, the tested form may be a part): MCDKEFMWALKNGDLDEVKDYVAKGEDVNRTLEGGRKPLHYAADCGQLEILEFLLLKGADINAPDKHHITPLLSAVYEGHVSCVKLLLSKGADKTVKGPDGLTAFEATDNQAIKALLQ

fold reduction of the affinity against the wild type proteins: > 25 fold
Substance: CP with mutations of residues which form the “basic triad” (CP (α) Lys256, Arg260, Arg266)

— publication PMC2897767, “Two Distinct Mechanisms for Actin Capping Protein Regulation—Steric and Allosteric Inhibition” (PLoS Biology, 2010)
